# Test results as given in article PMC5959768 (Cell, 2018).
# B1: Wild type human Gαs (residues 7-380 of the short isoform) (natural protein, UniProt P63092-2 7-380, looked up)
# chain: SKTEDQRNEEKAQREANKKIEKQLQKDKQVYRATHRLLLLGAGESGKSTIVKQMRILHVNGFNGDSEKATKVQDIKNNLKEAIETIVAAMSNLVPPVELANPENQFRVDYILSVMNVPDFDFPPEFYEHAKALWEDEGVRACYERSNEYQLIDCAQYFLDKIDVIKQADYVPSDQDLLRCRVLTSGIFETKFQVDKVNFHMFDVGGQRDERRKWIQCFNDVTAIIFVVASSSYNMVIREDNQTNRLQEALNLFKSIWNNRWLRTISVILFLNKQDLLAEKVLAGKSKIEDYFPEFARYTTPEDATPEPGEDPRVTRAKYFIRDEFLRISTASGDGRHYCYPHFTCAVDTENIRRVFNDCRDIIQRMHLRQYELL
# Molecular target: Gβ1/Gγ2(C68S) complex (human, UniProt P62873 1-340; P59768 1-71, C68S)
# Experiment: SEC
# Sequence of Gβ1/Gγ2(C68S) complex (P62873 whole entry, chain 1 of 2): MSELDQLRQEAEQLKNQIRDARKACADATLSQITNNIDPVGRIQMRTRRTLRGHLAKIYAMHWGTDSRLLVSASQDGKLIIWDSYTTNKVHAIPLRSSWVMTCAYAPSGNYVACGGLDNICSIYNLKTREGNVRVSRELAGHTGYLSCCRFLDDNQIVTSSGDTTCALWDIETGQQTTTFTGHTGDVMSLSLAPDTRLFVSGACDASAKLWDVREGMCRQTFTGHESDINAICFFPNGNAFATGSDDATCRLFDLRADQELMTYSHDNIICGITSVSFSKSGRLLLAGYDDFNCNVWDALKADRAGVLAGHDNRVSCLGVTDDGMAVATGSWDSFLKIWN
# Sequence of Gβ1/Gγ2(C68S) complex (P59768 whole entry C68S, chain 2 of 2): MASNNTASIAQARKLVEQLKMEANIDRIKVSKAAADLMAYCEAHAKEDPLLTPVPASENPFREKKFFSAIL
binder,measurement,value
B1,binding result,binds
